Source: IntAct's records for PubMed 25910212

B1: Neutrophil cytosol factor 2 (Homo sapiens), P19878 (parent)
chain: MSLVEAISLWNEGVLAADKKDWKGALDAFSAVQDPHSRICFNIGCMYTILKNMTEAEKAFTRSINRDKHLAVAYFQRGMLYYQTEKYDLAIKDLKEALIQLRGNQLIDYKILGLQFKLFACEVLYNIAFMYAKKEEWKKAEEQLALATSMKSEPRHSKIDKAMECVWKQKLYEPVVIPVGKLFRPNERQVAQLAKKDYLGKATVVASVVDQDSFSGFAPLQPQAAEPPPRPKTPEIFRALEGEAHRVLFGFVPETKEELQVMPGNIVFVLKKGNDNWATVMFNGQKGLVPCNYLEPVELRIHPQQQPQEESSPQSDIPAPPSSKAPGRPQLSPGQKQKEEPKEVKLSVPMPYTLKVHYKYTVVMKTQPGLPYSQVRDMVSKKLELRLEHTKLSYRPRDSNELVPLSEDSMKDAWGQVKNYCLTLWCENTVGDQGFPDEPKESEKADANNQTTEPQLKKGSQVEALFSYEATQPEDLEFQEGDIILVLSKVNEEWLEGECKGKVGIFPKVFVEDCATTDLESTRREV
B2: F-box only protein 7 (Homo sapiens), Q9Y3I1 (parent)
chain: MRLRVRLLKRTWPLEVPETEPTLGHLRSHLRQSLLCTWGYSSNTRFTITLNYKDPLTGDEETLASYGIVSGDLICLILQDDIPAPNIPSSTDSEHSSLQNNEQPSLATSSNQTSMQDEQPSDSFQGQAAQSGVWNDDSMLGPSQNFEAESIQDNAHMAEGTGFYPSEPMLCSESVEGQVPHSLETLYQSADCSDANDALIVLIHLLMLESGYIPQGTEAKALSMPEKWKLSGVYKLQYMHPLCEGSSATLTCVPLGNLIVVNATLKINNEIRSVKRLQLLPESFICKEKLGENVANIYKDLQKLSRLFKDQLVYPLLAFTRQALNLPDVFGLVVLPLELKLRIFRLLDVRSVLSLSAVCRDLFTASNDPLLWRFLYLRDFRDNTVRVQDTDWKELYRKRHIQRKESPKGRFVMLLPSSTHTIPFYPNPLHPRPFPSSRLPPGIIGGEYDQRPTLPYVGDPISSLIPGPGETPSQFPPLRPRFDPVGPLPGPNPILPGRGGPNDRFPFRPSRGRPTDGRLSFM
B3: ATP synthase mitochondrial F1 complex assembly factor 2 (Homo sapiens), Q8N5M1 (parent)
chain: MWRSCLRLRDGGRRLLNRPAGGPSASMSPGPTIPSPARAYAPPTERKRFYQNVSITQGEGGFEINLDHRKLKTPQAKLFTVPSEALAIAVATEWDSQQDTIKYYTMHLTTLCNTSLDNPTQRNKDQLIRAAVKFLDTDTICYRVEEPETLVELQRNEWDPIIEWAEKRYGVEISSSTSIMGPSIPAKTREVLVSHLASYNTWALQGIEFVAAQLKSMVLTLGLIDLRLTVEQAVLLSRLEEEYQIQKWGNIEWAHDYELQELRARTAAGTLFIHLCSESTTVKHKLLKE
partner: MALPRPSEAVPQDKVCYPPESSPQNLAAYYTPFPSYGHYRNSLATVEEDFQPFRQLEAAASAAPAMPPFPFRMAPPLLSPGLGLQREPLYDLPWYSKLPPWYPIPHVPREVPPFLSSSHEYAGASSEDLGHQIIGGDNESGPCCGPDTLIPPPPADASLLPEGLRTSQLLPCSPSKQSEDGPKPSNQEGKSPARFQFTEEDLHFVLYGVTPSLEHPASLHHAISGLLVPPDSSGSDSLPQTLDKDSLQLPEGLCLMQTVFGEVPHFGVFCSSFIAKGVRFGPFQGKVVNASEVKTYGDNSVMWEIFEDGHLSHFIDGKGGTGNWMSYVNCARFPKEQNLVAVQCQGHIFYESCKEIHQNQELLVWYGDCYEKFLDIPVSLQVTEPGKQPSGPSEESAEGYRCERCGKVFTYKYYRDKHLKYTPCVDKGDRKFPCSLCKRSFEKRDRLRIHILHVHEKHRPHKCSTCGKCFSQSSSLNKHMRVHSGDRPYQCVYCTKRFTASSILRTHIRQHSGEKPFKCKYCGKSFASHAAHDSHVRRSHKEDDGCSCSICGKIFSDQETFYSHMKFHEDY
B4: Keratin, type II cytoskeletal 6A (Homo sapiens), P02538 (parent)
chain: MASTSTTIRSHSSSRRGFSANSARLPGVSRSGFSSVSVSRSRGSGGLGGACGGAGFGSRSLYGLGGSKRISIGGGSCAISGGYGSRAGGSYGFGGAGSGFGFGGGAGIGFGLGGGAGLAGGFGGPGFPVCPPGGIQEVTVNQSLLTPLNLQIDPTIQRVRAEEREQIKTLNNKFASFIDKVRFLEQQNKVLETKWTLLQEQGTKTVRQNLEPLFEQYINNLRRQLDSIVGERGRLDSELRGMQDLVEDFKNKYEDEINKRTAAENEFVTLKKDVDAAYMNKVELQAKADTLTDEINFLRALYDAELSQMQTHISDTSVVLSMDNNRNLDLDSIIAEVKAQYEEIAQRSRAEAESWYQTKYEELQVTAGRHGDDLRNTKQEIAEINRMIQRLRSEIDHVKKQCANLQAAIADAEQRGEMALKDAKNKLEGLEDALQKAKQDLARLLKEYQELMNVKLALDVEIATYRKLLEGEECRLNGEGVGQVNISVVQSTVSSGYGGASGVGSGLGLGGGSSYSYGSGLGVGGGFSSSSGRAIGGGLSSVGGGSSTIKYTTTSSSSRKSYKH
partner: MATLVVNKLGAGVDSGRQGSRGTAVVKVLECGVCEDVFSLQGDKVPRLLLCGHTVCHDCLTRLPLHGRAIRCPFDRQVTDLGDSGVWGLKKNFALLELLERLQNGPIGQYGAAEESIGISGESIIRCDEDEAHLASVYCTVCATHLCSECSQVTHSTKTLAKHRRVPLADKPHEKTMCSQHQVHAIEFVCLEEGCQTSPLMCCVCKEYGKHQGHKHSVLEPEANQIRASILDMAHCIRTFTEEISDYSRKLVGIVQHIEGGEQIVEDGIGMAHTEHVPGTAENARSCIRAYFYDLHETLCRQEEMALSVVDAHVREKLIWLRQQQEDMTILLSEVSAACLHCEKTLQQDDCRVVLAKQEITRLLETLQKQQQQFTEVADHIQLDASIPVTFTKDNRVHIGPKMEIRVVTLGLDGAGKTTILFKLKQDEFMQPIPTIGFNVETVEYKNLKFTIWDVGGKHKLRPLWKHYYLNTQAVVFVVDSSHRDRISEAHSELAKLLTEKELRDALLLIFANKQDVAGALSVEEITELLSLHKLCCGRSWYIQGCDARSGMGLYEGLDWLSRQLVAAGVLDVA
B5: DNA mismatch repair protein Mlh1 (Homo sapiens), P40692 (parent)
chain: MSFVAGVIRRLDETVVNRIAAGEVIQRPANAIKEMIENCLDAKSTSIQVIVKEGGLKLIQIQDNGTGIRKEDLDIVCERFTTSKLQSFEDLASISTYGFRGEALASISHVAHVTITTKTADGKCAYRASYSDGKLKAPPKPCAGNQGTQITVEDLFYNIATRRKALKNPSEEYGKILEVVGRYSVHNAGISFSVKKQGETVADVRTLPNASTVDNIRSIFGNAVSRELIEIGCEDKTLAFKMNGYISNANYSVKKCIFLLFINHRLVESTSLRKAIETVYAAYLPKNTHPFLYLSLEISPQNVDVNVHPTKHEVHFLHEESILERVQQHIESKLLGSNSSRMYFTQTLLPGLAGPSGEMVKSTTSLTSSSTSGSSDKVYAHQMVRTDSREQKLDAFLQPLSKPLSSQPQAIVTEDKTDISSGRARQQDEEMLELPAPAEVAAKNQSLEGDTTKGTSEMSEKRGPTSSNPRKRHREDSDVEMVEDDSRKEMTAACTPRRRIINLTSVLSLQEEINEQGHEVLREMLHNHSFVGCVNPQWALAQHQTKLYLLNTTKLSEELFYQILIYDFANFGVLRLSEPAPLFDLAMLALDSPESGWTEEDGPKEGLAEYIVEFLKKKAEMLADYFSLEIDEEGNLIGLPLLIDNYVPPLEGLPIFILRLATEVNWDEEKECFESLSKECAMFYSIRKQYISEESTLSGQQSEVPGSIPNSWKWTVEHIVYKALRSHILPPKHFTEDGNILQLANLPDLYKVFERC
partner: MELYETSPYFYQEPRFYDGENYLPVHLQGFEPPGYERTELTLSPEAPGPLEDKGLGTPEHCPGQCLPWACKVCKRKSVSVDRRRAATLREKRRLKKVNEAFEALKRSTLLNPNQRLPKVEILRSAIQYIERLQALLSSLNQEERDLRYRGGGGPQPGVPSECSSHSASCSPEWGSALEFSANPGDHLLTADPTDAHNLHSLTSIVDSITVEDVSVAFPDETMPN
B6: Progranulin (Homo sapiens), P28799 (parent)
chain: MWTLVSWVALTAGLVAGTRCPDGQFCPVACCLDPGGASYSCCRPLLDKWPTTLSRHLGGPCQVDAHCSAGHSCIFTVSGTSSCCPFPEAVACGDGHHCCPRGFHCSADGRSCFQRSGNNSVGAIQCPDSQFECPDFSTCCVMVDGSWGCCPMPQASCCEDRVHCCPHGAFCDLVHTRCITPTGTHPLAKKLPAQRTNRAVALSSSVMCPDARSRCPDGSTCCELPSGKYGCCPMPNATCCSDHLHCCPQDTVCDLIQSKCLSKENATTDLLTKLPAHTVGDVKCDMEVSCPDGYTCCRLQSGAWGCCPFTQAVCCEDHIHCCPAGFTCDTQKGTCEQGPHQVPWMEKAPAHLSLPDPQALKRDVPCDNVSSCPSSDTCCQLTSGEWGCCPIPEAVCCSDHQHCCPQGYTCVAEGQCQRGSEIVAGLEKMPARRASLSHPRDIGCDQHTSCPVGQTCCPSLGGSWACCQLPHAVCCEDRQHCCPAGYTCNVKARSCEKEVVSAQPATFLARSPHVGVKDVECGEGHFCHDNQTCCRDNRQGWACCPYRQGVCCADRRHCCPAGFRCAARGTKCLRREAPRWDAPLRDPALRQLL
partner: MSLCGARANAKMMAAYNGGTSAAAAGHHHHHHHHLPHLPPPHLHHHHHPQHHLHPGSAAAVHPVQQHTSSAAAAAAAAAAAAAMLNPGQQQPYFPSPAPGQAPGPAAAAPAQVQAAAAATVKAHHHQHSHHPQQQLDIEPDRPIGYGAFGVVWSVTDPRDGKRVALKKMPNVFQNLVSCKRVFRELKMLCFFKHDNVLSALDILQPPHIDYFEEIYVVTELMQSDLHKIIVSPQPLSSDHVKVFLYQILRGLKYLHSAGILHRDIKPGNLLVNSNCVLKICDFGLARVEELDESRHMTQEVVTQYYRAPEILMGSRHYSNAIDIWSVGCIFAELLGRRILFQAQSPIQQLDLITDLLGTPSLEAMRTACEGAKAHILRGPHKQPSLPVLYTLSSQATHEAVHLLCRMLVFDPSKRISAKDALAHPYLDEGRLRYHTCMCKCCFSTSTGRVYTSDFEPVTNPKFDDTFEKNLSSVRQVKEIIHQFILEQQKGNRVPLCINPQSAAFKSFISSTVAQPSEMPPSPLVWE

Variants of: B1
Settings: with goga2_human GOLGA2, Q08379
Chain of goga2_human GOLGA2, Q08379 (Q08379 whole entry): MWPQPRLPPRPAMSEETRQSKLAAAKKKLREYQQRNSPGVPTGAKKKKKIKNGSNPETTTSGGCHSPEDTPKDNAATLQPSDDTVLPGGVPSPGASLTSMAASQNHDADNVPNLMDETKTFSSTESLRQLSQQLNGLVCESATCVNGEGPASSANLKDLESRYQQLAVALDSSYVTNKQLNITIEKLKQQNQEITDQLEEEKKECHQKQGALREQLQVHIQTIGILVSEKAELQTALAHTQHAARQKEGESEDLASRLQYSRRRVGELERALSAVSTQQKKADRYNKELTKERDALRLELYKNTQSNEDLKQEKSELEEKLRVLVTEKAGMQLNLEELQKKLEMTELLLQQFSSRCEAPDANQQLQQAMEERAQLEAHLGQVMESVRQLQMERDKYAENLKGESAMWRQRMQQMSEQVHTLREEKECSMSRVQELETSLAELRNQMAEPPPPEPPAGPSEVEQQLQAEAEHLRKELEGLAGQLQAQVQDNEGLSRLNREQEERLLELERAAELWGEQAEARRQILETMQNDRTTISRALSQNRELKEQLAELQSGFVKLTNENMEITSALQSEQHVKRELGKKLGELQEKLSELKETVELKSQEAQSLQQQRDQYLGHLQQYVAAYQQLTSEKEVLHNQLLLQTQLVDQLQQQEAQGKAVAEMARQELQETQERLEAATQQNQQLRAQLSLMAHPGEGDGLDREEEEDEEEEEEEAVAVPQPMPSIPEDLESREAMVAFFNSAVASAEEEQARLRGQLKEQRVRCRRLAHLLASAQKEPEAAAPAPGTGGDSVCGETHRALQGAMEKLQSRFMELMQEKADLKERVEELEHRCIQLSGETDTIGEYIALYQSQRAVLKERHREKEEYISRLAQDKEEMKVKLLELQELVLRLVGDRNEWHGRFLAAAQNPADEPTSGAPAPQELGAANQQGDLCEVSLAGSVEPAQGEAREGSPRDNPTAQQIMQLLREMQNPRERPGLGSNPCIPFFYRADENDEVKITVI

Row | Variant | effect of a mutation on the interaction
1 | R77Q | disrupting interaction strength
2 | R395W | with no effect
3 | G78E | disrupting interaction strength
4 | N419I | with no effect

Variants of: B1
Settings: with kifa3_human KIFAP3, Q92845
Chain of kifa3_human KIFAP3, Q92845 (Q92845 whole entry): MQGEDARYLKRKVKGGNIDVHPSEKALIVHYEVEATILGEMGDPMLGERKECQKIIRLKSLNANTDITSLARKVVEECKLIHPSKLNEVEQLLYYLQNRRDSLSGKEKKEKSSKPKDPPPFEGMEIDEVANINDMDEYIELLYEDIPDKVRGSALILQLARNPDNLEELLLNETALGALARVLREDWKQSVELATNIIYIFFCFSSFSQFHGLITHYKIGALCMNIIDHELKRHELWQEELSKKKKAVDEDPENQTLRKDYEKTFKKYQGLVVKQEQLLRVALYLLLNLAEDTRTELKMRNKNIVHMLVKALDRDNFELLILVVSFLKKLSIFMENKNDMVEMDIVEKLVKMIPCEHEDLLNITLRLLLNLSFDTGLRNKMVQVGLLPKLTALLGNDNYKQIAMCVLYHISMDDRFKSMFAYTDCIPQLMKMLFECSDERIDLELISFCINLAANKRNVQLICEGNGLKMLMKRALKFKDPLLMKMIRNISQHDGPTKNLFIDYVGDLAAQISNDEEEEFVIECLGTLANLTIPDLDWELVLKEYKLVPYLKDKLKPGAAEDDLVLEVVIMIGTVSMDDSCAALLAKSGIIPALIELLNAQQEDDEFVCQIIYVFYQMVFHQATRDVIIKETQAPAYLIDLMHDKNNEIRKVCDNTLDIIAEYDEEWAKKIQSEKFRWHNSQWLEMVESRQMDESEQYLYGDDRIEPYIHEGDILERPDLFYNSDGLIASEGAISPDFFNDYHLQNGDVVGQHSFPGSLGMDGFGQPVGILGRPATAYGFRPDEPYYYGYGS

Row | Variant | effect of a mutation on the interaction
5 | R77Q | disrupting interaction strength
6 | R395W | with no effect
7 | G78E | disrupting interaction strength
8 | N419I | with no effect

Variants of: B2
Settings: with psa3_human PSMA3, P25788
Chain of psa3_human PSMA3, P25788 (P25788 whole entry): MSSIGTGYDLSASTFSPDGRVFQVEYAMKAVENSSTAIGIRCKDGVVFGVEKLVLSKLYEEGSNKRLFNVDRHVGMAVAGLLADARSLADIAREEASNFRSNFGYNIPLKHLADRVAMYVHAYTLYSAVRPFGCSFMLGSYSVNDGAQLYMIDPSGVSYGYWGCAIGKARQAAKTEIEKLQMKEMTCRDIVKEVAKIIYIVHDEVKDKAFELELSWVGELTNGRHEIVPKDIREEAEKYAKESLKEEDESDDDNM

Row | Variant | effect of a mutation on the interaction
9 | T22M | disrupting interaction strength

Variants of: B3
Settings: with prd14_human PRDM14, Q9GZV8

Row | Variant | effect of a mutation on the interaction
10 | W94R | disrupting interaction strength

Variants of: B4
Settings: with tri23_human TRIM23, P36406

Row | Variant | effect of a mutation on the interaction
11 | T552S | with no effect
12 | F249L | with no effect
13 | N171K | disrupting interaction strength
14 | V523F | with no effect
15 | I462S | disrupting interaction strength
16 | A463P | disrupting interaction strength
17 | F174V | with no effect
18 | N21S | with no effect

Variants of: B5
Settings: with myog_human MYOG

Row | Variant | effect of a mutation on the interaction
19 | R472I | with no effect
20 | G244D | disrupting interaction strength

Variants of: B6
Settings: with nlk_human NLK

Row | Variant | effect of a mutation on the interaction
21 | P451L | disrupting interaction strength
